Laboratory results from paper PMC9190123 (Molecular pharmaceutics, 2009).
Where two headings read alike, the source gives them in different places. Numbered stars: 1 amine (or outer) side, 2 acyl side, 3 side chain; on linkers, the order of the positions; unused ones are H or OH. Square brackets hold non-standard residues; d marks the D form. Side chains are listed from the residue outwards. Peptide text beside a SMILES is read from it. * marks the point of attachment. X1 = N[C@@H](CN*)C(=O)N[C@@H](CC(=O)O)C(=O)N[C@@H](CS)C(=O)O; γGlu = O=C(O)[C@H](CCC(=O)[*:2])N[*:1]; PEG6 = NCCOCCOCCOCCOCCOCCOCCC(=O)O; Dap = NC[C@H](N)C(=O)O; Aoc = NCCCCCCCC(=O)O; CO = O=C([*:1])[*:2]

Assays:
[1] = target: PSMA (PSMA-expressing LNCaP cells) (Homo sapiens, UniProt Q04609); test: LNCaP cell binding study; conditions: for affinity for PSMA / LNCaP cells (in words): LNCaP cells in culture; for competitive inhibition of binding by excess PMPA: LNCaP cells, 100-fold excess PMPA; for Kd: PSMA-positive LNCaP cells in culture, 1 h at 37 °C
Sequence of PSMA (PSMA-expressing LNCaP cells) (Q04609 whole entry): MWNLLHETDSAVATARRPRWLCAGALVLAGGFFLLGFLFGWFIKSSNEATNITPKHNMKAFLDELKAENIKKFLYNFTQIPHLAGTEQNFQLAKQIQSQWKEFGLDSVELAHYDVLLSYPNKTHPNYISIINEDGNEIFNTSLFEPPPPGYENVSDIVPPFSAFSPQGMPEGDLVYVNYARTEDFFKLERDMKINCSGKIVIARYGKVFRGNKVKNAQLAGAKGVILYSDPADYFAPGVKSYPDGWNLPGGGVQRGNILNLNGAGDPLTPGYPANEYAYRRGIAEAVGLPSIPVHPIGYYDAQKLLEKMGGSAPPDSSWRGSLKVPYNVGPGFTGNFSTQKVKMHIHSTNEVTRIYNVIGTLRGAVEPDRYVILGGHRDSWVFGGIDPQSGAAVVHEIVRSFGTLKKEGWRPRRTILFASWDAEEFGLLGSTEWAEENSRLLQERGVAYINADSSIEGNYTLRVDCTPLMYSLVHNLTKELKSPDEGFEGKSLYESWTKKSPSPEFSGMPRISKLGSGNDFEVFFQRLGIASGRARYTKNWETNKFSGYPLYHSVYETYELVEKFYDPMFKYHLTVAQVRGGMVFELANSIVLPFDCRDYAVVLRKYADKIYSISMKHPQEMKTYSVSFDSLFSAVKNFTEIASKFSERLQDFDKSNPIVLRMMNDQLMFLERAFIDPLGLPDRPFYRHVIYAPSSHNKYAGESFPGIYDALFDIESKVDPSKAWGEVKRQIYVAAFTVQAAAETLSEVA

[2] = assay type: in vivo, athymic nu/nu mice; conditions: mouse, ip
[3] = tested on: LNCaP tumor xenografts; assay type: in vivo, athymic nu/nu mice; conditions: for tumor-specific accumulation by whole-body radioimaging: 4 h after ip injection; for Tumor:Tissue blood / Tumor:Tissue heart / Tumor:Tissue liver / Tumor:Tissue lung / Tumor:Tissue muscle / Tumor:Tissue skin / Tumor:Tissue spleen: mouse, in vivo, ip; for accumulation in PSMA-positive tumors by γ-counting (in words): tissue biodistribution, 4 h
[4] = tested on: PSMA-negative human tumor xenografts; conditions: two PSMA-negative human tumor xenografts; cited from earlier work
[5] = male, athymic nu/nu, in vivo, 67 nmol, total radioactivity, tumor uptake, average % ID/g tissue

SMILES | internalization by LNCaP cells ([1]; 1 h at 4 °C vs 37 °C) | affinity for PSMA / LNCaP cells (in words) [1] | competitive inhibition of binding by excess PMPA [1] | Kd [1] [nM] | tissue uptake at 4 h [2, 5] [%ID/g] | tissue uptake at 4 h ([2]; kidney, 67 nmol, % ID/g kidney, kidney, 4 h after ip injection) [%ID/g] | tumor-specific accumulation by whole-body radioimaging ([3]; radioimaging) | LNCaP tumor uptake with coinjection of excess PMPA ([3]; competition with 100-fold excess PMPA, radioimaging) | Tumor:Tissue blood [3] | Tumor:Tissue heart [3] | Tumor:Tissue liver [3] | Tumor:Tissue lung [3] | Tumor:Tissue muscle [3] | Tumor:Tissue skin [3] | Tumor:Tissue spleen [3] | uptake in PSMA-negative tumors [4] | accumulation in PSMA-positive tumors by γ-counting (in words) [3] | tissue uptake at 4 h ([2]; in vivo, % ID/g kidney) [%ID/g]
N[C@@H](CNC(=O)[C@H](Cc1ccccc1)NC(=O)[C@H](Cc1ccccc1)NC(=O)CCCCCCCNC(=O)CC[C@H](NC(=O)N[C@@H](CCC(=O)O)C(=O)O)C(=O)O)C(=O)N[C@@H](CC(=O)O)C(=O)N[C@@H](CS)C(=O)O [compound 5] (H-[Dap]([Phe-Phe-Aoc-γGlu-CO-Glu])-Asp-Cys-OH) | internalization of the DUPA conjugate at physiological temperature | most avid interaction | nearly quantitative competition | 13.8 ± 3.9 | 9.8 ± 2.4 | 37.8 | accumulated predominantly in the PSMA-positive LNCaP tumors | eliminated LNCaP tumor uptake | 36.4 | 80.9 | 20.2 | 35.2 | 78.9 | 30.7 | 18.4 | no uptake |  | 
N[C@@H](CNC(=O)CC[C@H](NC(=O)N[C@@H](CCC(=O)O)C(=O)O)C(=O)O)C(=O)N[C@@H](CC(=O)O)C(=O)N[C@@H](CS)C(=O)O [compound 3] (H-[Dap]([γGlu-CO-Glu])-Asp-Cys-OH) |  | weak affinity |  | 176 |  |  | not observed |  |  |  |  |  |  |  |  |  | did not accumulate | 
N[C@@H](CNC(=O)[C@H](Cc1ccccc1)NC(=O)CCOCCOCCOCCOCCOCCOCCNC(=O)CC[C@H](NC(=O)N[C@@H](CCC(=O)O)C(=O)O)C(=O)O)C(=O)N[C@@H](CC(=O)O)C(=O)N[C@@H](CS)C(=O)O [compound 8] (H-[Dap]([Phe-PEG6-γGlu-CO-Glu])-Asp-Cys-OH) |  | weak affinity |  | 338 |  |  | not observed |  |  |  |  |  |  |  |  |  | did not accumulate | 
N[C@@H](CNC(=O)[C@H](Cc1ccccc1)NC(=O)[C@H](Cc1ccccc1)NC(=O)CNC(=O)[C@H](CCC(=O)O)NC(=O)[C@H](Cc1ccccc1)NC(=O)CC[C@H](NC(=O)N[C@@H](CCC(=O)O)C(=O)O)C(=O)O)C(=O)N[C@@H](CC(=O)O)C(=O)N[C@@H](CS)C(=O)O [compound 7] ({Glu-CO-γGlu}-FEGFF-X1) |  |  |  |  |  |  | accumulated predominantly in the PSMA-positive LNCaP tumors |  |  |  |  |  |  |  |  |  |  | 
N[C@@H](CNC(=O)[C@H](CCC(=O)O)NC(=O)[C@H](Cc1ccccc1)NC(=O)CCCCCCCNC(=O)CC[C@H](NC(=O)N[C@@H](CCC(=O)O)C(=O)O)C(=O)O)C(=O)N[C@@H](CC(=O)O)C(=O)N[C@@H](CS)C(=O)O [compound 6] (H-[Dap]([Glu-Phe-Aoc-γGlu-CO-Glu])-Asp-Cys-OH) |  | somewhat lower affinities | nearly quantitative competition | 31 | 9.8 ± 2.4 |  | accumulated predominantly in the PSMA-positive LNCaP tumors |  | 51.4 | 93.3 | 11.6 | 18.9 | 74.2 | 28.7 | 4.5 |  |  | 42.9
N[C@@H](CNC(=O)[C@H](Cc1ccccc1)NC(=O)[C@H](CCC(=O)O)NC(=O)CC[C@H](NC(=O)N[C@@H](CCC(=O)O)C(=O)O)C(=O)O)C(=O)N[C@@H](CC(=O)O)C(=O)N[C@@H](CS)C(=O)O [compound 4] (H-[Dap]([Phe-Glu-γGlu-CO-Glu])-Asp-Cys-OH) |  | somewhat lower affinities | nearly quantitative competition | 60 | 9.8 ± 2.4 |  | accumulated predominantly in the PSMA-positive LNCaP tumors |  | 91.7 | 112.2 | 62.9 | 101.8 | 115.1 | 92.3 | 66.7 |  |  | 3.4
